Data taken from US20170253656A1 (SUTRO BIOPHARMA, published 2017).
Where a chain is given by its changes, count along the chain named. Read-outs that look alike come from different tables or passages of the source. One block for each binder: values may come before it.

Tests used:
Test in all cases: SPR (Biacore T200), captured on anti-human Fc, rhCD74 analyte
[1] = target: T1, hu-CD74 antigen (R&D SYSTEMS catalog #3590-CD-050) (human, UniProt P04233-2 73-232, limits assumed)
T1 construct: Bought antigen; also called rhCD74; human CD74
T1 sequence (looked up): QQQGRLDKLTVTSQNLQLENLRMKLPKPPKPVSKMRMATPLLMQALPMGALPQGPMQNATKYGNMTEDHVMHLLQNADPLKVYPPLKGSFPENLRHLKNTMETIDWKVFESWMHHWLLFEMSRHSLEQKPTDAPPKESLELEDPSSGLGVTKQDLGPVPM

[2] = target: T1, hu-CD74 antigen (R&D SYSTEMS catalog …); remark: listed apart in the source
Experimental: Kinetic binding experiments were performed at 25° C. using 1×HBS-EP+buffer. Kinetic data was collected by injecting test and control antibodies at concentrations of 10, 5 and 2.5 μg/mL for 12 s at a flow rate of 10 μl/min on flow cells 2, 3 and 4 respectively, followed by a buffer wash for 30 s at the same flow rate. Kinetic characterization of antibody samples was carried out with 8 concentrations of a 1:2 dilution series of rhCD74 antigen (R&D Systems) and 2 injections of 0 nM antigen (buffer only). […] Between each ligand capture and analyte binding cycle, regeneration was carried out using 2 injections of 3M MgCl₂ for 30 seconds at 30 μL/min, followed by a 30 second buffer wash step.

[3] = target: T1, hu-CD74 antigen (R&D SYSTEMS catalog …); remark: listed apart in the source
[4] = target: T1, hu-CD74 antigen (R&D SYSTEMS catalog …); remark: listed apart in the source

B1: 1193-B06 (scFv)
scFv: EVQLLESGGGLVQPGGSLRLSCAASGFTFTGNWMSWVRQAPGKGLEWVGIIYGTSGATYYADSVKGRFTISRDNSKNTLYLQMNSLRAEDTAVYYCAKPSMSGSRGFDYWGQGTLVTVSSGGGGSGGGGSGGGGSEIVLTQSPGTLSLSPGERATLSCRAGQSVSSSYLAWYQQKPGQAPRLLIYGASSRATGIPDRFSGSGSGTDFTLTISRLEPEDFAVYYCQQHYTTPPTFGQGTKVEIK
notes: Called scFv clone; VH3-23 / Vk3-A27; Biacore capture was on anti-human Fc, so an Fc may have been attached
Kd [1]: 29 nM
koff [1]: 0.0274 s⁻¹
kon [1]: 946000 M⁻¹ s⁻¹

B2: 1193-E06b (scFv)
scFv: EVQLLESGGGLVQPGGSLRLSCAASGFTFNNTDMSWVRQAPGKGLEWVGIINGSGGATNYADSVKGRFTISRDNSKNTLYLQMNSLRAEDTAVYYCAKFENEWEVSMDYWGQGTLVTVSSGGGGSGGGGSGGGGSEIVLTQSPGTLSLSPGERATLSCRASQSVSSSYLAWYQQKPGQAPRLLIYGASSRATGIPDRFSGSGSGTDFTLTISRLEPEDFAVYYCQQHYTTPPTFGQGTKVEIK
notes: Called scFv clone
Kd [1]: 0.668 nM
koff [1]: 0.000651 s⁻¹
kon [1]: 975000 M⁻¹ s⁻¹

B3: 1251-D09 heavy chain paired with VL SEQ ID NO: 272 (antibody, V domains shown)
VH: QVQLVESGGGVVQPGRSLRLSCAASGFSFSSYGMHWVRQAPDKGLEWVAVIWYDASIRKYAGSVKGRFTISRDNSKNTLYLQMNSLRAEDTAVYYCARGGTVERGAIYGTDVWGQGTTVTVSS
VL: DIQMTQSPSSLSASVGDRVTITCRASQGISSWLAWYQQKPEKAPKSLIYAASSLQSGVPSRFSGSGSGTDFTLTISSLQPEDFATYYCQQYNSYPLTFGGGTKVEIK
Kd [2]: 0.139 nM
koff [2]: 0.000137 s⁻¹
kon [2]: 989000 M⁻¹ s⁻¹

B4: 1275-C10 light chain paired with HC 1251-A06 (SEQ ID NO: 310) (antibody)
heavy: not shown
VL: B3 VL with I29V, A50S, S52R, S53Y, S93L
Kd [2]: 0.26 nM
koff [2]: 0.000234 s⁻¹
kon [2]: 901000 M⁻¹ s⁻¹

B5: 1251-F06 heavy chain paired with VL SEQ ID NO: 272 (antibody, V domains shown)
VH: QVQLVESGGGVVQPGRSLRLSCAASGFTFSSFGMHWVRQAPDKGLEWVAVIWYDGSNEYYADSVKGRFTISRDNSKNTLYLQMNSLRAEDTAVYYCARGGSLVTRGVYGLDVWGQGTTVTVSS
VL: B3 VL
Kd [2]: 0.363 nM
koff [2]: 0.000779 s⁻¹
kon [2]: 2.15e+06 M⁻¹ s⁻¹

B6: 1251-A02 heavy chain paired with VL SEQ ID NO: 272 (antibody, V domains shown)
VH: QVQLVESGGGVVQPGRSLRLSCAASGFAFSDHGMHWVRQAPDKGLEWVAVIWYDGSHKIYADSVKGRFTISRDNSKNTLYLQMNSLRAEDTAVYYCARGGSLAGGAVYGTDVWGQGTTVTVSS
VL: B3 VL
notes: Selected from a Fab library; VH3-33 / Vk1-12
Kd [2]: 0.2 nM
koff [2]: 0.000302 s⁻¹
kon [2]: 1.51e+06 M⁻¹ s⁻¹

B7: 1251-A03 heavy chain paired with VL SEQ ID NO: 272 (antibody, V domains shown)
VH: B6 VH
VL: B3 VL
Kd [2]: 0.184 nM
koff [2]: 0.000305 s⁻¹
kon [2]: 1.65e+06 M⁻¹ s⁻¹

B8: 1251-C03 heavy chain paired with VL SEQ ID NO: 272 (antibody, V domains shown)
VH: QVQLVESGGGVVQPGRSLRLSCAASGFNFSSYGMHWVRQAPDKGLEWVAVIWYDGSIKNYADSVKGRFTISRDNSKNTLYLQMNSLRAEDTAVYYCARGGALMRGEFSGHDVWGQGTTVTVSS
VL: B3 VL
Kd [2]: 1.63 nM
koff [2]: 0.00118 s⁻¹
kon [2]: 722000 M⁻¹ s⁻¹

B9: 1251-E06 heavy chain paired with VL SEQ ID NO: 272 (antibody, V domains shown)
VH: QVQLVESGGGVVQPGRSLRLSCAASGFTFDSYGMHWVRQAPDKGLEWVAVIWYDGSNKVYADSVKGRFTISRDNSKNTLYLQMNSLRAEDTAVYYCARGGMVGQGAMFGLDVWGQGTTVTVSS
VL: B3 VL
Kd [2]: 0.376 nM
koff [2]: 0.000426 s⁻¹
kon [2]: 1.13e+06 M⁻¹ s⁻¹

B14: 1251-F07 heavy chain paired with VL SEQ ID NO: 272 (antibody, V domains shown)
VH: QVQLVESGGGVVQPGRSLRLSCAASGFTFSSHGMHWVRQAPDKGLEWVAVIWDDGSNEVYADSVKGRFTISRDNSKNTLYLQMNSLRAEDTAVYYCARGGTRIRGLRYGTDVWGQGTTVTVSS
VL: B3 VL
Kd [2]: 0.185 nM
koff [2]: 0.000125 s⁻¹
kon [2]: 678000 M⁻¹ s⁻¹

B21: 1198-B10 paired with trastuzumab LC (Fab, V domains shown)
VH: EVQLVESGGGLVQPGGSLRLSCAASGFNISGSWIHWVRQAPGKGLEWVGYIYPDDGDTYYADSVKGRFTISADTSKNTAYLQMNSLRAEDTAVYYCAREGSHNLDKMDYWGQGTLVTVSS
VL: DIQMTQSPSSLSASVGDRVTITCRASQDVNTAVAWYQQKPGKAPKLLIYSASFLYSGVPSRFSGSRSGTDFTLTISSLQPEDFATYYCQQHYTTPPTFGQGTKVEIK
notes: Called Fab clone
Kd [4]: 11.9 nM
koff [4]: 0.00286 s⁻¹
kon [4]: 241000 M⁻¹ s⁻¹

B22: 1193-C08 (scFv)
scFv: EVQLLESGGGLVQPGGSLRLSCAASGFTFNNNWMSWVRQAPGKGLEWVGIINGDDGYTYYADRVKGRFTIIRDNSKNTLYLQMNSLRAEDTAVYYCAKVALGRPRRFDYWGQGTLVTVSSGGGGSGGGGSGGGGSEIVLTQSPGTLSLTPGERATLSCRASQSVSSNYLAWYQQKPGQAPRLLIYGASSRATGIPDRFSGSGSGTDFTLTISRLEPEDFAMYYCQQHYTTPPTFGQGTKVEIK
notes: Called scFv clone
Kd [1]: 78.2 nM
koff [1]: 0.00908 s⁻¹
kon [1]: 116000 M⁻¹ s⁻¹

B23: 1198-D03 paired with trastuzumab LC (Fab, V domains shown)
VH: EVQLVESGGGLVQPGGSLRLSCAASGFNINNYDIHWVRQAPGKGLEWVANIDPYNGATYYADSVKGRFTISADTSKNTAYLQMNSLRAEDTAVYYCARVLWGFWAPFDYWGQGTLVTVSS
VL: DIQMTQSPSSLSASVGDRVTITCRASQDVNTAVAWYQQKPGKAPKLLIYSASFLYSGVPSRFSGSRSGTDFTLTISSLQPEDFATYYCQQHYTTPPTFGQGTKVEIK
notes: Called Fab clone
Kd [4]: 3.25 nM
koff [4]: 0.00636 s⁻¹
kon [4]: 1.95e+06 M⁻¹ s⁻¹

B24: 1193-H04b (scFv)
scFv: EVQLLESGGGLVQPGGSLRLSCAASGFTFTSSWMSWVRQAPGKGLEWVGIINGYNGITYYADSVKGRFTISRDNSKNTLYLQMNSLRAEDTAVYYCAKPSAPGARRFDYWGQGTLVTVSSGGGGSGGGGSGGGGSEIVLTQSPGTLSLSPGEATLSCRASQSVSSSYLAWYQQRPGQAPRLLIYGASSRATGIPDRFSGSGSGTDFTLTISRLEPEDFAVYYCQQHYTTPPTFGQGTKVEIK
notes: Called scFv clone
Kd [1]: 63.8 nM
koff [1]: 0.00824 s⁻¹
kon [1]: 129000 M⁻¹ s⁻¹

B25: 1198-A01 paired with trastuzumab LC (Fab, V domains shown)
VH: EVQLVESGGGLVQPGGSLRLSCAASGFTFSDYDMSWVRQAPGKGLEWVGFIAQDGSYKYYVDSVKGRFTISRDNAKNSLYLQMNSLRAEDTAVYYCARSKLFRAGQFDYWGQGTLVTVSS
VL: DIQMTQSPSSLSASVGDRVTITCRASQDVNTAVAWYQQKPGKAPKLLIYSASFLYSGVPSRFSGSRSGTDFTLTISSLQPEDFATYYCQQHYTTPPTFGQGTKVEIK
notes: Called Fab clone
Kd [4]: 6.6 nM
koff [4]: 0.00119 s⁻¹
kon [4]: 179000 M⁻¹ s⁻¹

Now from value to binder:

Kd [3]: 0.179 nM
koff [3]: 0.000156 s⁻¹
kon [3]: 869000 M⁻¹ s⁻¹
B10: 1337-A05 light chain paired with VH 1251-A06 (SEQ ID NO: 236) (Fab, V domains shown)
VH: B3 VH with S28D, Y53D, A55G, I57D, K59Y, G62D, V102R, E103V, R104L, Y108H
VL: B3 VL with S30G, S31R, L33V, A50G, S52D, S53R
notes: 'in Fab format'

Kd [3]: 0.178 nM
koff [3]: 0.000134 s⁻¹
kon [3]: 749000 M⁻¹ s⁻¹
B11: 1337-A08 light chain paired with VH 1251-A06 (SEQ ID NO: 236) (Fab, V domains shown)
VH: B3 VH with S28D, Y53D, A55G, I57D, K59Y, G62D, V102R, E103V, R104L, Y108H
VL: B3 VL with G28D, S30G, L33V, A51S, S52D
notes: 'in Fab format'

Kd [3]: 0.158 nM
koff [3]: 0.000123 s⁻¹
kon [3]: 775000 M⁻¹ s⁻¹
B12: 1337-A04 light chain paired with VH 1251-A06 (SEQ ID NO: 236) (Fab, V domains shown)
VH: B3 VH with S28D, Y53D, A55G, I57D, K59Y, G62D, V102R, E103V, R104L, Y108H
VL: B3 VL with G28D, S30G, S31R, L33V, A50G, S93T
notes: 'in Fab format'

Kd [3]: 0.135 nM
koff [3]: 0.000134 s⁻¹
kon [3]: 994000 M⁻¹ s⁻¹
B13: 1337-A09 light chain paired with VH 1251-A06 (SEQ ID NO: 236) (Fab, V domains shown)
VH: B3 VH with S28D, Y53D, A55G, I57D, K59Y, G62D, V102R, E103V, R104L, Y108H
VL: B3 VL with S30G, S52D, S53R, N92H, S93T
notes: 'in Fab format'

Kd [3]: 0.18 nM
koff [3]: 0.000141 s⁻¹
kon [3]: 785000 M⁻¹ s⁻¹
B15: 1337-A07 light chain paired with VH 1251-A06 (SEQ ID NO: 236) (Fab, V domains shown)
VH: B3 VH with S28D, Y53D, A55G, I57D, K59Y, G62D, V102R, E103V, R104L, Y108H
VL: B3 VL with L33V, A50G, S53R, N92H, S93T
notes: 'in Fab format'

Kd [2]: 0.559 nM
koff [2]: 0.000235 s⁻¹
kon [2]: 420000 M⁻¹ s⁻¹
B16: 1275-D10 light chain paired with HC 1251-A06 (SEQ ID NO: 310) (antibody, human IgG1, V domains shown)
VH: B3 VH with S28D, Y53D, A55G, I57D, K59Y, G62D, V102R, E103V, R104L, Y108H
VL: B3 VL with I29V, S30F, A50N, S52T, S53Q, N92Y, S93Y

Kd [3]: 0.172 nM
koff [3]: 0.000161 s⁻¹
kon [3]: 935000 M⁻¹ s⁻¹
B17: 1337-A10 light chain paired with VH 1251-A06 (SEQ ID NO: 236) (Fab, V domains shown)
VH: B3 VH with S28D, Y53D, A55G, I57D, K59Y, G62D, V102R, E103V, R104L, Y108H
VL: B3 VL with L33V, A50G, A51S, S53R, S93T
notes: 'in Fab format'

Kd [2]: 0.721 nM
koff [2]: 0.000475 s⁻¹
kon [2]: 659000 M⁻¹ s⁻¹
B18: 1275-D01 light chain paired with HC 1251-A06 (SEQ ID NO: 310) (antibody, human IgG1, V domains shown)
VH: B3 VH with S28D, Y53D, A55G, I57D, K59Y, G62D, V102R, E103V, R104L, Y108H
VL: B3 VL with S30G, S31R, A50G, A51R, S93I

Kd [3]: 0.184 nM
koff [3]: 0.000144 s⁻¹
kon [3]: 785000 M⁻¹ s⁻¹
B19: 1337-A06 light chain paired with VH 1251-A06 (SEQ ID NO: 236) (Fab, V domains shown)
VH: B3 VH with S28D, Y53D, A55G, I57D, K59Y, G62D, V102R, E103V, R104L, Y108H
VL: B3 VL with G28D, S30G, L33V, A50G, S52D, S53R
notes: 'in Fab format'

Kd [2]: 0.651 nM
koff [2]: 0.00084 s⁻¹
kon [2]: 1.29e+06 M⁻¹ s⁻¹
B20: 1251-G02 heavy chain paired with VL SEQ ID NO: 272 (antibody, V domains shown)
VH: B5 VH with F32Y, Y53H, N57K, E58D, S101Q, V103D, T104H, R105G, G106A, V107I
VL: B3 VL
